Columns and labels:
[1] = molecular target: T1, GST-hMYH-ΔC (amino acids 1-487) (human, UniProt Q9UIF7-1 1-487); test: pull-down; GST or GST-hMYH fusion on glutathione-Sepharose 4B beads, purified His-hRad9 added; 50 mM Tris-HCl pH 7.5, 150 mM NaCl, 1 mM EDTA, 0.3 mM DTT, 0.1% NP-40; 3 h at 4°C; blot with anti-GST and anti-His; details: both partners purified
T1 construct: cloned into pGEX-4T1; source: bacterially expressed and purified
T1 sequence (looked up): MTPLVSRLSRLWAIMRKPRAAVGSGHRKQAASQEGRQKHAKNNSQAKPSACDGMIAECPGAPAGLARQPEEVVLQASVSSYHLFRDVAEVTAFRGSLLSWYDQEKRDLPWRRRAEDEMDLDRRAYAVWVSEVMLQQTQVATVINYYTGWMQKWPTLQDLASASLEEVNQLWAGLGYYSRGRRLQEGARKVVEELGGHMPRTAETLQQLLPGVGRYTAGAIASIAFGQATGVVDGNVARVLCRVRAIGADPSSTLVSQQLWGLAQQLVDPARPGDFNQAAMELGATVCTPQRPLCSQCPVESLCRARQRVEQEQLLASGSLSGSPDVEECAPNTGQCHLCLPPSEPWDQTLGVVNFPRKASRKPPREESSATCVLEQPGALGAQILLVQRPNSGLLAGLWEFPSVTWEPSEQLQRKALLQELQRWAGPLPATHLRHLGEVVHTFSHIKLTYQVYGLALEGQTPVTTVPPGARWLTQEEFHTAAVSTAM

[2] = molecular target: T2, GST-hMYH (full-length, amino acids 1-547) (human, UniProt Q9UIF7-1 1-546); test: as above; details: both partners purified
T2 construct: human MutY glycosylase homolog (hMYH), NM_012222; printed as full-length, amino acids 1-547; cloned into pGEX-4T1; also called GST-tagged hMYH wild type; source: bacterially expressed and purified
T2 sequence (looked up): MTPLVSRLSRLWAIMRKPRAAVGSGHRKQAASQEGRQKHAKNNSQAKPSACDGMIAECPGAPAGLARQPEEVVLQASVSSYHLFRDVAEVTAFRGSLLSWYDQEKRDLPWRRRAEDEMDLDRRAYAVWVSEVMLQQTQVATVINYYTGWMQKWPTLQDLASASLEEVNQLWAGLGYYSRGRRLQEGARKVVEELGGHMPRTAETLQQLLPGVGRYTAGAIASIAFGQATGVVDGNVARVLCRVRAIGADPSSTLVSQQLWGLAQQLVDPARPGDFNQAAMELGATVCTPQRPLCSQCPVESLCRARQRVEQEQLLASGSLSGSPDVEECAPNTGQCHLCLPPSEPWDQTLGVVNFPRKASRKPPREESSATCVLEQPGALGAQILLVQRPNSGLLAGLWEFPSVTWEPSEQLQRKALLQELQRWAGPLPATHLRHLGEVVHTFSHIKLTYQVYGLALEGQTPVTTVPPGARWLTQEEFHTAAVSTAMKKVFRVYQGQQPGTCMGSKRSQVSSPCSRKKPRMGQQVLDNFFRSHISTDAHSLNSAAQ

binding result [1]: binds | binding result [2]: binds
B1: His-hRad9 (natural protein, human, UniProt Q99638 1-391, looked up)
chain: MKCLVTGGNVKVLGKAVHSLSRIGDELYLEPLEDGLSLRTVNSSRSAYACFLFAPLFFQQYQAATPGQDLLRCKILMKSFLSVFRSLAMLEKTVEKCCISLNGRSSRLVVQLHCKFGVRKTHNLSFQDCESLQAVFDPASCPHMLRAPARVLGEAVLPFSPALAEVTLGIGRGRRVILRSYHEEEADSTAKAMVTEMCLGEEDFQQLQAQEGVAITFCLKEFRGLLSFAESANLNLSIHFDAPGRPAIFTIKDSLLDGHFVLATLSDTDSHSQDLGSPERHQPVPQLQAHSTPHPDDFANDDIDSYMIAMETTIGNEGSRVLPSISLSPGPQPPKSPGPHSEEEDEAEPSTVPGTPPPKKFRSLFFGSILAPVRSPQGPSPVLAEDSEGEG
notes: human Rad9 (hRad9), NM_004584; also called purified His-hRad9; His-purified hRad9 protein; source: bacterially expressed and purified
